According to paper PMC2875157 (Nature, 2010):

B1: GST-eIF5^W391F (natural protein)
chain: MSINICRDNHDPFYRYKMPPIQAKVEGRGNGIKTAVLNVADISHALNRPAPYIVKYFGFELGAQTSISVDKDRYLVNGVHEPAKLQDVLDGFINKFVLCGSCKNPETEIIITKDNDLVRDCKACGKRTPMDLRHKLSSFILKNPPDSVSGSKKKKKAATASANVRGGGLSISDIAQGKSQNAPSDGTGSSTPQHHDEDEDELSRQIKAAASTLEDIEVKDDEWAVDMSEEAIRARAKELEVNSELTQLDEYGEWILEQAGEDKENLPSDVELYKKAAELDVLNDPKIGCVLAQCLFDEDIVNEIAEHNAFFTKILVTPEYEKNFMGGIERFLGLEHKDLIPLLPKILVQLYNNDIISEEEIMRFGTKSSKKFVPKEVSKKVRRAAKPFITFLETAESDDDEEDDE
B2: GST-eIF5^CTD (domain or fragment)
chain: VNSELTQLDEYGEWILEQAGEDKENLPSDVELYKKAAELDVLNDPKIGCVLAQCLFDEDIVNEIAEHNAFFTKILVTPEYEKNFMGGIERFLGLEHKDLIPLLPKILVQLYNNDIISEEEIMRFGTKSSKKFVPKEVSKKVRRAAKPFITWLETAESDDDEEDDE
B3: GST-eIF5^LR+CTD (domain or fragment)
chain: KKKKAATASANVRGGGLSISDIAQGKSQNAPSDGTGSSTPQHHDEDEDELSRQIKAAASTLEDIEVKDDEWAVDMSEEAIRARAKELEVNSELTQLDEYGEWILEQAGEDKENLPSDVELYKKAAELDVLNDPKIGCVLAQCLFDEDIVNEIAEHNAFFTKILVTPEYEKNFMGGIERFLGLEHKDLIPLLPKILVQLYNNDIISEEEIMRFGTKSSKKFVPKEVSKKVRRAAKPFITWLETAESDDDEEDDE

The binders below were run against Yeast eIF2αβγ complex, purified (his-tagged eIF2γ) (yeast, UniProt P20459;P09064;P32481) (assay: pull-down).
Yeast eIF2αβγ complex, purified (his-tagged eIF2γ), sequence (P20459 whole entry, chain 1 of 3): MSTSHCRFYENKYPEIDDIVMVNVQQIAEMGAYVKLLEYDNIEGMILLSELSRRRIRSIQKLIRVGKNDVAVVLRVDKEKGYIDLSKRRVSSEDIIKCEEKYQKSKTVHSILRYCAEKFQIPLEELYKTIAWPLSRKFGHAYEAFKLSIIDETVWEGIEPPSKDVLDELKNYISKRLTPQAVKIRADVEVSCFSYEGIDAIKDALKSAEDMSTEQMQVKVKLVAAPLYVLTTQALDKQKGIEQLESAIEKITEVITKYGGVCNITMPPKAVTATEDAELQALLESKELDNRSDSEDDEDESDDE
Yeast eIF2αβγ complex, purified (his-tagged eIF2γ), sequence (P09064 whole entry, chain 2 of 3): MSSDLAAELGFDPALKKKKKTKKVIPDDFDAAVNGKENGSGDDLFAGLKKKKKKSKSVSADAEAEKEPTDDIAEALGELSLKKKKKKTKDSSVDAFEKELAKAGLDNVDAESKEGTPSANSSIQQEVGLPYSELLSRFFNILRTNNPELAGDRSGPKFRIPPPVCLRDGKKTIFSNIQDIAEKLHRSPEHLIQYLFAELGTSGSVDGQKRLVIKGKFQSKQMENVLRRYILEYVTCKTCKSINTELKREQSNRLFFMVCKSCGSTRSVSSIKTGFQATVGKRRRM
Yeast eIF2αβγ complex, purified (his-tagged eIF2γ), sequence (P32481 whole entry, chain 3 of 3): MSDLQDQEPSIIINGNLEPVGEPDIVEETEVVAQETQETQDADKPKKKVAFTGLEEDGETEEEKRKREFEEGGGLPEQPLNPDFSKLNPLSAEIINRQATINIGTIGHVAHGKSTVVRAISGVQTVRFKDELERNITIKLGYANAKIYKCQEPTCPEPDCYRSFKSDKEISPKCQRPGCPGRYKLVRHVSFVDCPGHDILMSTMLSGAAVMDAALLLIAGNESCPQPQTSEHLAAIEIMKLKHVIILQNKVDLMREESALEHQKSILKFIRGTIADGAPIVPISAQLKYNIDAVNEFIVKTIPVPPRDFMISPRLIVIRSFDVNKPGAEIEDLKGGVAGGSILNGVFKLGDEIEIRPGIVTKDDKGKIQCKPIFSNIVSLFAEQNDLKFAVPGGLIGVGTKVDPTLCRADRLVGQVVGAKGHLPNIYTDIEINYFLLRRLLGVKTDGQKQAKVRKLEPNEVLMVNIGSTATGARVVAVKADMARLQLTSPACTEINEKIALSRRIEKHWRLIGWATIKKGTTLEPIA

Binding result, binds:
B1
B2
B3
